Here are results for one substance from PMC4510890.

For assay [1], the target named is recombinant rabbit ASI(+)RyR1 (rabbit) (UniProt P11716).
For assay [2] the target is unchanged. This is another data set of the same source.

In the case of “dihydropyridine receptor β1a subunit (from UniProt P19517 1-524) (natural protein)”, the relative Po of WT RyR1 channels in lipid bilayers, 10 nM to 100 nM β1a (1.8-fold at 10 nM, 1.9-fold at 100 nM), cis 10 μM Ca2+ and 2 mM ATP in assay [1] is 1.9 fold. In addition, in assay [2], the relative Po of ASI(+)RyR1 channels in lipid bilayers, 10 nM β1a (50 nM also tested, number not given), cis 10 μM Ca2+, no ATP turned out to be 4.4 fold and the relative Po of ASI(−)RyR1 channels in lipid bilayers, 10 nM β1a (50 nM also tested, number not given), cis 10 μM Ca2+, no ATP was found to be 2.3 fold.
